Test results: the supplement of paper PMC10567573

B1: TRAF3IP2 (parent)
chain: PRPPSNPPARGTLKTSNLPEELRK
B2: PPP2R2C (parent)
chain: YSSSKGSLRLCDMRAAALCDKHSK

Variants of: B1
Assay: protein stability index of a GFP-peptide fusion (GPS, HEK-293T) (PSI 1-6); higher = more stable
Settings: c terminus: a fixed tail appended
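Note: lentivirally expressed fusions sorted by FACS into six bins by GFP to DsRed ratio, PSI derived from sequencing read proportions per bin multiplied by bin number.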

Protein stability index: each site, then its substitutions
L18: V 5.06 | W 4.2 | Y 5.14
P19: A 4.48 | C 4.7 | D 4.89 | E 5.1 | F 4.28 | G 4.36 | H 3.36 | I 4 | K 4.59 | L 4.43 | M 4.47 | N 4.83 | Q 4.75 | R 4.14 | S 4.75 | T 4.14 | V 4.09 | W 3.98 | Y 3.54
E20: A 4.41 | C 4.44 | D 4.81 | F 4.06 | G 5.51 | H 3.96 | I 3.44 | K 4.2 | L 4.1 | M 4.14 | N 4.61 | P 4.21 | Q 4.67 | R 4.48 | S 4.52 | T 4.25 | V 3.41 | W 4 | Y 3.95
E21: A 4.6 | C 4.19 | D 4.71 | F 3.73 | G 4.36 | H 3.94 | I 4.29 | K 4.26 | L 4.26 | M 3.06 | N 4.6 | P 3.62 | Q 5.04 | R 4.2 | S 3.97 | T 4.46 | V 3.74 | W 3.69 | Y 4.23
L22: A 4.55 | C 5.65 | D 5.22 | E 5.61 | F 4.24 | G 4.15 | H 5.11 | I 4.56 | K 4.97 | M 4.75 | N 4.93 | P 5.15 | Q 5.39 | R 4.82 | S 4.96 | T 5.4 | V 3.16 | W 4.25 | Y 4.47
R23: A 4.7 | C 4.64 | D 4.9 | E 4.94 | F 3.92 | G 4.7 | H 4.7 | I 4.39 | K 4.92 | L 4.19 | M 4.31 | N 5.2 | P 5.21 | Q 5.23 | S 5.16 | T 4.77 | V 4.13 | W 3.42 | Y 4.47
K24: A 4.86 | C 4.9 | D 5.14 | E 4.99 | F 4.33 | G 4.05 | H 4.79 | I 4.24 | L 4.31 | M 4.26 | N 4.87 | P 3.9 | Q 4.66 | R 4.75 | S 4.7 | T 4.8 | V 4.53 | W 4.19 | Y 3.78

Variants of: B2
Assay: as above
Settings: c terminus: a fixed tail appended

Protein stability index: each site, then its substitutions
Y1: A 3.93 | C 2.98 | D 4.63 | E 4.47 | F 2.31 | G 3.72 | H 3.72 | I 3.73 | K 3.79 | L 3.65 | M 3.54 | N 3.81 | P 3.65 | Q 3.95 | R 3.81 | S 3.74 | T 4.13 | V 3.56 | W 2.92
S2: A 2.44 | C 1.92 | D 3.89 | E 3.84 | F 2.8 | G 2.46 | H 2 | I 1.54 | K 3.58 | L 2.52 | M 1.72 | N 3.28 | P 2.5 | Q 1.94 | R 2.98 | T 2 | W 1.89 | Y 2.94
S3: A 2.93 | C 3.48 | D 2.92 | E 2.53 | F 2.39 | G 1.95 | H 2.52 | I 3.06 | K 2.37 | L 2.7 | M 2.84 | N 2.48 | P 2.79
